According to paper PMC12350261:

How the values were obtained:
[1] = target: human D-glucuronyl C5-epimerase Glce^167-617 (human); experiment: dynamic light scattering; DynaPro NanoStar, room temperature, 2 uM Glce^167-617; hydrodynamic radius turned into an estimated molecular weight
[2] = target: human D-glucuronyl C5-epimerase Glce^167-617 (human); experiment: SEC; Superdex 200 10/300 GL, 18 C, 20 mM Tris-HCl pH 8.0, 200 mM NaCl, 1 mM DTT, 100 ug loaded, calibrated with gel filtration standard; apparent molecular weight
[3] = target: human D-glucuronyl C5-epimerase Glce^167-617 (human); experiment: crystal structure; apo Glce^167-617, sitting-drop vapour diffusion at 20 C, 0.2 M ammonium sulfate, 0.1 M Tris pH 8.5, 22% PEG 3,350; space group C 1 2 1, two molecules in the asymmetric unit; 2.88 A

Measured: stoichiometry N

human D-glucuronyl C5-epimerase Glce^167-617 (domain or fragment)
2: all assays above
